These results are taken from patent publication US20260274954A1 (published 2026).

First the molecules themselves.
B1: 2B1 (antibody, V domains shown)
VH: QVQLVQSGAEVKKPGSSVKVSCKASGFTFTTYYISWVRQAPGQGLEYLGYINMGSGGTNYNEKFKGRVTITADKSTSTAYMELSSLRSEDTAVYYCAIIGYFDYWGQGTMVTVSS
VL: DVVMTQSPLSLPVTLGQPASISCRSSQSLLDSDGNTYLYWFQQRPGQSPRRLIYLVSTLGSGVPDRFSGSGSGTDFTLKISRVEAEDVGVYYCMQLTHWPYTFGQGTKLEIK
B2: 2E5 (antibody, V domains shown)
VH: QVQLVQSGAEVKKPGSSVKVSCKASGFTFTTYYISWVRQAPGQGLEYLGYINMGSGGTNYNEKFKGRVTITADKSTSTAYMELSSLRSEDTAVYYCAIIGYFDYWGQGTMVTVSS
VL: DVVMTQSPLSLPVTLGQPASISCRSSQSLLDSDGGTYLYWFQQRPGQSPRRLIYLVSTLGSGVPDRFSGSGSGTDFTLKISRVEAEDVGVYYCMQLTHWPYTFGQGTKLEIK
B3: 5C4 (antibody, V domains shown)
VH: QVQLVQSGAEVKKPGSSVKVSCKASGFTFTTYYISWVRQAPGQGLEYLGYINMGSGGTNYNEKFKGRVTITADKSTSTAYMELSSLRSEDTAVYYCAILGYFDYWGQGTMVTVSS
VL: DVVMTQSPLSLPVTLGQPASISCRSSQSLLDSDGQTYLYWFQQRPGQSPRRLIYLVSTLGSGVPDRFSGSGSGTDFTLKISRVEAEDVGVYYCMQLTHEPYTFGQGTKLEIK
B4: 2G4 (antibody, V domains shown)
VH: QVQLVQSGAEVKKPGSSVKVSCKASGFTFTTYYISWVRQAPGQGLEYLGYINMGSGGTNYNEKFKGRVTITADKSTSTAYMELSSLRSEDTAVYYCAIIGYFDYWGQGTMVTVSS
VL: DVVMTQSPLSLPVTLGQPASISCRSSQSLLDSDGSTYLYWFQQRPGQSPRRLIYLVSTLGSGVPDRFSGSGSGTDFTLKISRVEAEDVGVYYCMQLTHWPYTFGQGTKLEIK
B5: 2C2 (antibody, V domains shown)
VH: QVQLVQSGAEVKKPGSSVKVSCKASGFTFTTYYISWVRQAPGQGLEYLGYINMGSGGTNYNEKFKGRVTITADKSTSTAYMELSSLRSEDTAVYYCAIIGYFDYWGQGTMVTVSS
VL: DVVMTQSPLSLPVTLGQPASISCRSSQSLLDSDGATYLYWFQQRPGQSPRRLIYLVSTLGSGVPDRFSGSGSGTDFTLKISRVEAEDVGVYYCMQLTHWPYTFGQGTKLEIK
B6: 1G10 (antibody, V domains shown)
VH: QVQLVQSGAEVKKPGSSVKVSCKASGFTFTTYYISWVRQAPGQGLEYLGYINMGSGGTNYNEKFKGRVTITADKSTSTAYMELSSLRSEDTAVYYCAILGYFDYWGQGTMVTVSS
VL: DVVMTQSPLSLPVTLGQPASISCRSSQSLLDSDGATYLYWFQQRPGQSPRRLIYLVSTLGSGVPDRFSGSGSGTDFTLKISRVEAEDVGVYYCMQLTHWPYTFGQGTKLEIK
B7: 8C10 (antibody, V domains shown)
VH: QVQLVQSGAEVKKPGSSVKVSCKASGFTFTTYYISWVRQAPGQGLEYLGYINMGSGGTNYNEKFKGRVTITADKSTSTAYMELSSLRSEDTAVYYCAIIGYFDYWGQGTMVTVSS
VL: DVVMTQSPLSLPVTLGQPASISCRSSQSLLDSDGQTYLYWFQQRPGQSPRRLIYLVSTLGSGVPDRFSGSGSGTDFTLKISRVEAEDVGVYYCMQLTHENYTFGQGTKLEIK
B8: 1H6 (antibody, V domains shown)
VH: QVQLVQSGAEVKKPGSSVKVSCKASGFTFTTYYISWVRQAPGQGLEYLGYINMGSGGTNYNEKFKGRVTITADKSTSTAYMELSSLRSEDTAVYYCAILGYFDYWGQGTMVTVSS
VL: DVVMTQSPLSLPVTLGQPASISCRSSQSLLDSDGGTYLYWFQQRPGQSPRRLIYLVSTLGSGVPDRFSGSGSGTDFTLKISRVEAEDVGVYYCMQLTHWPYTFGQGTKLEIK
B9: L1I (antibody, V domains shown)
VH: QVQLVQSGAEVKKPGSSVKVSCKASGFTFTTYYISWVRQAPGQGLEYLGYINMGSGGTNYNEKFKGRVTITADKSTSTAYMELSSLRSEDTAVYYCAIIGYFDYWGQGTMVTVSS
VL: DVVMTQSPLSLPVTLGQPASISCRSSQSLLDSDGNTYLYWFQQRPGQSPRRLIYLVSTLGSGVPDRFSGSGSGTDFTLKISRVEAEDVGVYYCMQLTHAPYTFGQGTKLEIK

cynomolgus PD-1 protein (construct not stated) (cynomolgus), sequence (B0LAJ3 entry or part of it limits assumed): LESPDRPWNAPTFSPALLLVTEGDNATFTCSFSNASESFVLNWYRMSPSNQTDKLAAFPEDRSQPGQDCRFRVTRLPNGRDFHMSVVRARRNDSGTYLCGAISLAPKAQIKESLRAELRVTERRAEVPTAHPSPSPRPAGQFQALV

For one test, the target named is T1, cynomolgus PD-1 protein (construct not stated) (cynomolgus, UniProt B0LAJ3 25-170).
T1 construct: not shown: tag or Fc carrier of the recombinant (Sino Biological) cynomolgus PD-1
T1 sequence (B0LAJ3 entry or part of it limits assumed, form in doubt): as the sequence (B0LAJ3 entry or part of it limits assumed) above
Put plainly: ELISA, second round mutagenesis library screen; unit not given. Background: ELISA stands for enzyme-linked immunosorbent assay.
B1 gave a Bmax of 1.21.

As to B2, the Bmax is 1.72.

In the case of B3, the Bmax stood at 0.258.

Take B4: the Bmax was found to be 1.72.

The molecule B5 registered a Bmax of 1.67.

B6 displayed a Bmax of 1.08.

B7: the Bmax is 1.11.

Molecule B8 yielded a Bmax of 0.317.

Another test addresses cynomolgus PD-1 protein (construct not stated) (cynomolgus) (UniProt B0LAJ3). The test is described as above.
B9: the Bmax stood at 0.0517.
